The results in this text go back to publication doi:10.1101/2023.01.10.523494 (bioRxiv, 2023).

Test [1] deals with receptor binding domain (RBD) of the wildtype (WT) SARS-CoV-2 spike protein (SARS-CoV-2, wildtype (sequence as in …)).
In test [2] the target is SARS-CoV-2 RBD for crystallisation (SARS-CoV-2 (wildtype), UniProt P0DTC2). In words: crystal structure.

B1: hRBD13 (antibody, V domains shown)
VH: QVQLVESGGGVVQPGRSLRLSCAVSGFTFRNYGMDWVRQAPGKGLEWVAVISYDGSNKYYADSVKGRFTISRDNSKNTLFLHLNSLRAEDTAVYYCAKAGGGPYCGGGNCYMHYFDYWGQGTQVTVSS
VL: DIQMTQSPSSLSASVGDRVTITCQASQDINNYLNWYQQKPGKAPKLLIYDASNLETGVPLRFSGSGSATHFSFTISSLQPEDIATYYCQQYDHLPCTFGQGTKLEIR
Consider B1, for which the binding result in test [1] is recorded as “binds”.

B2: hRBD14 (antibody, V domains shown)
VH: EVQLVESGGGLVQPGGSLRLSCAASGFSFSSSDMHWVRQATGKGLEWVSGIGTSGDTYYLGSVKGRFTISRDDAKNSFYLQMNSLRAGDTAVYYCARGEMAATGLWYYFDYWGQGTLVTVSS
VL: not shown
Regarding B2, the binding result in test [1] is given as “binds”.

B3: hRBD15 (antibody, V domains shown)
VH: QVQLVQSGAEVKKPGASVKVSCKASGYTFTSQYMHWVRQAPGQGLEWMGIINPSGGSTSYAQKFQGRVTMTSDTSTSTVYMELSSLRSEDTAVYYCARDIYFVPARGGFDPWGQGTLVTVSS
VL: EIVLTQSPGTLSLSPGERATLSCRASQSIISSYLAWYQQKPGQAPRLLIYGASSRATGIPDRFSGSGSGTDFTLTISRLEPEDFAVYYCQQSGSAPRYTFGQGTKLEIK
For B3, in test [1], the binding result is recorded as “binds”.

B4: mRBD2 Fab fragment (Fab, V domains shown)
VH: QVQLQQSGAELARPGASVKLSCKASGYTFISNGISWVKQRTGQGLEWIGEIYPRNGNTYYNEKFKGKATLTADKSSSTAYMELRSLTSEDSAVFFCARDYYYGSFDYWGQGTTLTVSS
VL: DIQMTQSPSSLSASLGERVSLTCRASREISGYLTWLQQKPDGTIKRLIYAASTLDSGVPKRFSGSRSGSDYSLTISSLESEDFADYYCLQYASYPWTFGGGTKLEIK
As to B4, the binding result in test [2] is listed as “binds”.
